Laboratory results from PMC4552671.

Biological target: Urokinase plasminogen activator surface receptor (uPAR) on metastatic KHOS osteosarcoma cells (human (endogenous in KHOS)) (UniProt Q03405)
UniProt Q03405, sequence (Q03405 other isoform, or with tags, fused parts or gaps): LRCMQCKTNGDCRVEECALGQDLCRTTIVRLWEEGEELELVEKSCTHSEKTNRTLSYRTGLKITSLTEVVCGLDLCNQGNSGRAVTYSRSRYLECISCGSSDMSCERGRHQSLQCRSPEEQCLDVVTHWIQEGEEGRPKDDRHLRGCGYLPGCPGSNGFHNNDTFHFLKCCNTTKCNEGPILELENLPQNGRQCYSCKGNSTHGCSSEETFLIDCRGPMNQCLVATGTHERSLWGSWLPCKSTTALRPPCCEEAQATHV

increase in migration of metastatic KHOS cells over basal level (Transwell, 24 h) with 0.5 and 1.0 ug/mL rh-uPA: 166%
Substance: recombinant human urokinase plasminogen activator (rh-uPA), high molecular weight form
